In US20240051999A1 (JOHN INNES CENTRE, published 2024):

How the values were obtained:
[1] = target: T1, vWA (von Willebrand factor type A) domain of Arabidopsis thaliana RPN10 (Arabidopsis thaliana, UniProt P55034 1-193); assay: His-tag pull-down (iMAC), His-sumo-tagged vWA as bait
T1 construct: In Y2H it was a fusion to a GAL4 domain; also called AtvWA; AtRPN10 vWA domain
T1 sequence: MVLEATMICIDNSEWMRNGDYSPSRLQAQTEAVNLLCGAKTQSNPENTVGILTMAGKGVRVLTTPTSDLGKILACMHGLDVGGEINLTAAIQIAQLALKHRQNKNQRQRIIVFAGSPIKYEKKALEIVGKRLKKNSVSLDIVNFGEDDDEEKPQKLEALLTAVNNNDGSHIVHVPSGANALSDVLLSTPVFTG

[2] = target: T2, UIM domain (C-terminal half with ubiquitin-interacting motifs) of Arabidopsis thaliana RPN10 (Arabidopsis thaliana, UniProt P55034 194-386); assay: yeast two-hybrid
T2 construct: domain: UIM domain
T2 sequence: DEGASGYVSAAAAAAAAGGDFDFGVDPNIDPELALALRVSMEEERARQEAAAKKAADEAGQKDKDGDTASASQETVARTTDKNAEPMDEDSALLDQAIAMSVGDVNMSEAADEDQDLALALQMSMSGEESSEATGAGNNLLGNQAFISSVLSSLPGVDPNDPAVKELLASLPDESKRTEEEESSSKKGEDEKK

B1: ZnF (zinc-finger) domain of Arabidopsis thaliana SPL5 (other)
chain: SRLCQVDRCTVNLTEAKQYYRRHRVCEVHAKASAATVAGVRQRFCQQCSRFHELPEFDEAKRSCRRRLAGHNERRRKI
notes: domain: ZnF domain; Recombinant protein from E. coli; also called ZnF domain of AtSPL5
[1]
  binding result: no binding

B2: SAP05 (effector protein from AY-WB phytoplasma) (other)
chain: APNEEFVGDMRIVNVNLSNIDILKKHETFKKYFDFTLTGPRYNGNIAEFAMIWKIKNPPLNLLGVFFDDGTRDDEDDKYILEELKQIGNGAKNMYIFWQYEQK
notes: also called SAP05_AYWB; His-tagged SAP05
[2]
  binding result: no binding
